This is an account of results in the DeepSol protein solubility set.

The data set is described as follows: soluble on expression in E. coli; label from the status in PepcDB or PDB records.
Turning to “MSLRIKDIARLANVSVGTVDRVLHGRSGVSEASRKRVEEILKQLDYQPNMYASALASNKKYTFACLLPKHLEGEYWTDVQKGIREAVTTYSDFNISANITHYDPYDYNSFVATSQAVIEEQPDGVMFAPTVPQYTKGFTDALNELGIPYIYIDSQIKDAPPLAFFGQNSHQSGYFAARMLMLLAVNDREIVIFRKIHEGVIGSNQQESREIGFRQYMQEHHPACNILELNLHADLNIEDSRMLDDFFREHPDVKHGITFNSKVYIIGEYLQQRRKSDFSLIGYDLLERNVTCLKEGTVSFLIAQQPELQGFNSIKTLCDHLIFRKEVACTNYMPIDLLTKENIDYYHSEGHHHHHH”, the “soluble on expression in E. coli” value is recorded as “soluble”. The entry for “MPEISPYVTKTEVQLMMAGLDYRKTNGSRDTAPKGQLPWIVDAAQAIADSTFIRVHIERKYDVDLDFGLTGRERAQAWAIERMIENQLGWVSTYFRFLEPANFERGPARAFDQAPGHLRDELRQGLREAVAANIRAVGVGRHLREEVAWLGGLSLRALDELLEDKAYLMRDAYPVGVDATAFAMLAAIMTPFFDSPLRRQAERYPRLVAYVGRMMERFYPAHPWGLRQAALEHHHHHH” is “not soluble”. In the case of “MGSDKIHHHHHHGCSYGVGDDCLPPEEPVPIRMAIAEGKLSTRAPVTTIDASNLSNVGIYAVSEGSIAGQYPWTSTPFALNLVPSGISGSQLSFNPKLYYPLGGKRVIFYSYYPRTTATSGSNYITAPGNGVAPAYHFTLTGTEDIMYAAGTPTGSTSTMPVSLTFNHVLTQLQLNTSLLGALSSIKLLGVYNKGMLDIGNGNVTYDSSTTDITLTVPLLGSVTNTVMVPAGVASYKVEVVLLLSLLKRTYLVKPTSGNFQPGVIYTISL” it was “not soluble”; in that of “MTFAGIDVSKTHLDLALVSNSPKPTRLRFPNSPEGRQALLAALAHHNPAWVALEPTSAYHLPLLKLLAENRLQVALVNPYHLAAFRKAKGERQKTDRQDALLLARYAQVYHEDLRAYTLPPETLRELKALVGYREDLAGRERTILNQMEAAEWAGSKEVLALLQKELACVKGLLGEVEARIQALLATLPEAEVLMALPGVGPQVAAAVLALLPPELWGRAKRAASYAGLIPEREESGKSVERSRLSKKGPPLLRRKLYMGALVAVRHDPEMRAFYHRLLSRGKRKKQALVAVAHKLLRRMMGRLREYYATQLDQGVA”, “soluble”; in that of “HHHHHHMQHLVLIGFMGSGKSSLAQELGLALKLEVLDTDMIISERVGLSVREIFEELGEDNFRMFEKNLIDELKTLKTPHVISTGGGIVMHENLKGLGTTFYLKMDFETLIKRLNQKEREKRPLLNNLTQAKELFEKRQALYEKNASFIIDARGGLNNSLKQVLQFIA”, “soluble”. In the case of “ILGPHHLDEYVRVWAEYDPAACGRIHYKDMYSLLRVISPPLGLGKKCPHRVACKRLLRMDLPVADDNTVHFNSTLMALIRTALDIKIAKGGADKQQMDAELRKEMMAIWPNLSQKTLDLLVTPHKSTDLTVGKIYAAMMIMEYYRQSKAKKLQAMREEQDRTPLMFQRMEPPSPTQEGGPGQNALPSTQLDPGGALMAHESGLKESPSWVTQRAQEMFQKTGTWSPE” it was “not soluble”. Take “MQVSDLFIREMPSDCLPRERLLAIGEKALSNQELLAILLRTGSKEADVMTVAATLLKQFKQLSYLQQATLNELMAIKGIGQVKAIELRAAIELGCRIYQSSQIKFGKVTSSQQVAQRLLQEMKGLQQEHLICIYLNTKNDIIQQKTIFKGSLNQSIAHPREIFREAVKYSSARILLAHNHPSGNPTPSPQDIQFTKRMEECGEMMGIQLLDHIILGDSGYISLREENFFASE”: the “soluble on expression in E. coli” value was “not soluble”.

With “MSLALRFITAEEAAEFVHHNDNVGFSGFTPAGNPKVVPAAIAKRAIAAHEKGNPFKIGMFTGASTGARLDGVLAQADAVKFRTPYQSNKDLRNLINNGSTSYFDLHLSTLAQDLRYGFYGKVDVAIIEVADVTEDGKILPTTGVGILPTICRLADRIIVELNDKHPKEIMGMHDLCEPLDPPARRELPVYTPSDRIGKPYVQVDPAKIVGVVRTSEPNDESDFAPLDPVTQAIGDNVAAFLVSEMKAGRIPKDFLPLQSGVGNVANAVLGALGDNPDIPAFNMYTEVIQDAVIALMKKGRIKFASGCSLSVSRSVIQDIYANLDFFKDKILLRPQEYSNNPEIVRRLGVITINTALEADIFGNINSTHVSGTRMMNGIGGSGDFTRNSYVSIFTTPSVMKDGKISSFVPMVAHHDHSEHSVKVIISEWGVADLRGKNPRERAHEIIDKCVHPDYRPLLRQYLELGVKGQTPQNLDCCFAFHQELAKSGDMRNVRWEDYMKEGHHHHHH”, the “soluble on expression in E. coli” value is reported as “soluble”.

Turning to “MASPAAGDVLIVGSGLVGRSWAMLFASGGFRVKLYDIEPRQITGALENIRKEMKSLQQSGSLKGSLSAEEQLSLISSCTNLAEAVEGVVHIQECVPENLDLKRKIFAQLDSIVDDRVVLSSSSSCLLPSKLFTGLAHVKQCIVAHPVNPPYYIPLVELVPHPETSPATVDRTHALMRKIGQSPVRVLKEIDGFVLNRLQYAIISEAWRLVEEGIVSPSDLDLVMSDGLGMRYAFIGPLETMHLNAEGMLSYSDRYSEGMKRVLKSFGSIPEFSGATVEKVNQAMCKKGPADPEHLAARREWRDECLKRELAKLKRQMQPQ”, the “soluble on expression in E. coli” value is “soluble”.

As for “MSKETGKMAEEPPGSSSSAKPVTSSKKPPPNDVTTTTNTTKTTNSNQQEDMYLNGNNPYYGGFYANNRYLFPSTSSQATCIGTSSEDSPPPPPPSANGSIHRKHHQNANHHQNSRHAISDTVAVAGDDLSNVPAAVVIQLEKANRTIASQTLEIERLKSYQNQNLETHLLKKQIHDLEKEVRSGRSRFLEQQELLAEMSREMDILLREKLEMQRNSQELEKKYKKAKFASRELAKILENDLCGTPTTSNLKNFESDDEFFEEKSLFEKSRALSRQQIPNDLLEKTRKIDFSEAKNAKNQDLIDKLIDENENLQISLNREQKMTSSLQDDLEKSRRMVIDRDEHIEELKMKLGKAETKASQCESDLTQTSSDLAMERLRCEVLTGELHEIDGIFRNTQSTIQAYADDNDRLEDQCRQAQRTILTLNSKL”, the “soluble on expression in E. coli” value was “not soluble”. The entry for “LKYMYKIDDDKKYILYCPTWRGNQRKEVTQINLKDLLKYLPENYEIIVKLHPNESHLRTRYNQIDNRIHCYFNELVDIQELYILSECMITDYSSTIFDYIHLNKPVFILQEDEQQYKQSVGFYFDLFEVGDFLKASLNERMLAKQICSTDYINYSKVVHRLMKQDSSKSSEKLMAEILGEPEYPSSSNCKQQIS” is “not soluble”. As to “MSLSNDGRRQIIESAGRSMAEGYAETLRAIDPTLAINLFSPADEADRLPAPLSSYDGVVVTGSSLHVYRTEPAVTRQIDFLREVFDAGVPVFGSCWGLQLGVVAAGGTVIPNPKRREVPFARSVTLTAAGKTHQMHQSRPAAFDALAIHLDVVSVLPPDSVVTAFNDMAAVQAVEFRSGRSLFWGVQYHPEFELPYMASILRRNASSLVAEAAFSSEGELVEMVDAMDSHGNDGDRVRHPSLLPDDVLDRHTRTIEIANWLKMLSSGEGHHHHHH”, the “soluble on expression in E. coli” value is on record as “not soluble”.

For the sequence “HHHHHHTDPALRAAQQTPLYEQHTLCGARMVDFHGWMMPLHYGSQIDEHHAVRTDAGMFDVSHMTIVDLRGSRTREFLRYLLANDVAKLTKSGKALYSGMLNASGGVIDDLIVYYFTEDFFRLVVNSATREKDLSWITQHAEPFGIEITVRDDLSMIAVQGPNAQAKAATLFNDAQRQAVEGMKPFFGVQAGDLFIATTGYTGEAGYEIALPNEKAADFWRALVEAGVKPCGLGARDTLRLEAGMNLYGQEMDETISPLAANMGWTIAWEPADRDFIGREALEVQREHGTEKLVGLVMTEKGVLRNELPVRFTDAQGNQHEGIITSGTFSPTLGYSIALARVPEGIGETAIVQIRNREMPVKVTKPVFVRNGKAVAGLCGR”, the “soluble on expression in E. coli” value is given as “soluble”. In the case of “MSLNIETKKVAVEEISAAIANAQTLVVAEYRGISVSSMTELRANARKEGVYLRVLKNTLARRAVQGTSFAELADQMVGPLVYAASEDAVAAAKVLHQFAKKDDKIVVKAGSYNGEVMNAAQVAELASIPSREELLSKLLFVMQAPVSGFARGLAALAEKKAGEEAA” it was “not soluble”.
